Results reported in publication PMC7616425 (2024).

Legend:
[1] = biological target: Alexa647-labeled RhoGDI1 L56V (bovine, UniProt P19803 1-204, L56V, Alexa647 acceptor (site not stated)); assay: FRET
[2] = biological target: Alexa647-labeled RhoGDI1 L56A (bovine, UniProt P19803 1-204, L56A, Alexa647 acceptor (site not stated)); assay: FRET

koff [1]: 0.003 s⁻¹
koff [2]: 0.08 s⁻¹
B1: Cy3-labeled, prenylated Cdc42 (natural protein)
chain: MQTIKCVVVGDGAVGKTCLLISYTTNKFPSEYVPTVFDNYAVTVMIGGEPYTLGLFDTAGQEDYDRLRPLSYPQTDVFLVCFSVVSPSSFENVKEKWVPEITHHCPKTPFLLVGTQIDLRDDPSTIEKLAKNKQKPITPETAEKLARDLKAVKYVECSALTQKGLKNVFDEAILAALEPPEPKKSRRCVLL
modifications: prenylated (residue not stated); Cy3 donor (site not stated)
